The subject of the series is CsrA-H6 (Escherichia coli (K-12 MG1655?)). Description: EMSA. The conditions noted are these: apparent Kd, EMSA: 0.08-0.2 nM RNA, 10 mM MgCl2, 100 mM KCl, 32.5 ng SUPERase In, 37 C 30 min, footprint: 2 nM RNA, 10 mM Tris-HCl pH 7.5, 10 mM MgCl2, 100 mM KCl, 40 ng …. In general terms: Mobility shift assays separate free from complexed probe on a gel.

The values below come from publication PMC11210196.

On to ydeO 5' leader (EMSA), for which the Kd (binds both conformers) amounted to 84 nM.

As for gadE 5' leader (EMSA), the Kd stood at 138 nM.

gadA 5' leader (EMSA): the Kd (two shifts) was 73 nM.

In the case of evgA 5' leader (EMSA), the Kd (two shifted species) stood at 7 nM.

As to gadB 5' leader (EMSA), the Kd (two shifts) worked out at 49 nM.
